As a reminder, the IC50 is the point on the concentration scale where inhibition reaches its midpoint.

This is an account of results in patent US6818617.

For assay [1], the target named is integrin α4β1 on Jurkat cells, P13612. Description: inhibition of cell adhesion: Jurkat cells to immobilized VCAM-1.
For assay [2] the target is unchanged.
Assay [3] has as its target integrin α4β1 on CHO cells transfected with human α4 (human) (UniProt P13612). Description: inhibition of cell adhesion: α4B2 (CHO α4+/α5-) cells to immobilized VCAM-1.
For assay [4] the target is unchanged. Description: inhibition of cell adhesion: A2 (CHOα4+) cells to immobilized VCAM-1.

B1: cyclic peptide … (peptide)
peptide: CKRAMLDGLNDYC
modifications: not checked
Regarding B1, the IC50 in assay [1] worked out at 1000 µM. In assay [2], the fold more active than MLDG turned out to be 5 fold.

B2: Echistatin (peptide)
chain: ECESGPCCRNCKFLKEGTICKRARGDDMDDYCNGKTCDCPRNPHKGPAT
On to B2, for which the IC50 in assay [3] and in assay [4] was over 10 µM throughout.

B3: EC-3 protein, heterodimeric disintegrin from Echis carinatus suchoreki venom (protein)
chain 1: NSVHPCCDPVKCEPREGEHCISGPCCRNCYFLRAGTVCKRAVGDDVDDYCSGITPDCPRNRYKGKED
chain 2: NSVHPCCDPVKCEPREGEHCISGPCCRNCKFLNAGTICKRAMLDGLNDYCTGISTDCPRNRYKGKED
For the molecule B3, the IC50 in assay [3] and in assay [4] was 0.03 µM throughout.
